Among the targets are HLA-A*02:02; HLA-A*02:06; HLA-A*68:02; HLA-A*02:03; HLA-A*02:01.
Common to all, as to assay: IEDB peptide-MHC binding, purified MHC/competitive/radioactivity; ≥ and ≤ were set here for values at or beyond the usual limits of such assays
The mark [1] stands for this setting: source organism: Vaccinia virus WR.
Setting [2] is: source organism: Mammarenavirus machupoense.
Where [3] appears, read: source organism: Mammarenavirus juninense.
Where [4] appears, read: source organism: Hepacivirus hominis.

From the Immune Epitope Database (IEDB) come the findings set out here.

In the case of KQYDSTDFKM, the IC50 with HLA-A*02:02 (setting [1]) was found to be 8.4 nM; with HLA-A*02:06 (setting [1]), 107 nM; with HLA-A*68:02 (setting [1]), 3540 nM; with HLA-A*02:03 (setting [1]) it was 3280 nM; with HLA-A*02:01 (setting [1]), 309 nM.

As to KSFFWFNEV, the IC50 amounted to 62 nM with HLA-A*02:02 (setting [2]); 3.2 nM in the assay with HLA-A*02:06 (setting [2]); 84 nM with HLA-A*68:02 (setting [2]); 265 nM in the assay with HLA-A*02:03 (setting [2]); 6.5 nM with HLA-A*02:01 (setting [2]).

KSGLFQFFV: the IC50 came out at 23 nM with HLA-A*02:02 (setting [3]); 8.1 nM with HLA-A*02:06 (setting [3]); 201 nM with HLA-A*68:02 (setting [3]); 1560 nM with HLA-A*02:03 (setting [3]); 17 nM in the assay with HLA-A*02:01 (setting [3]).

On to KTANNYETI, for which the IC50 with HLA-A*02:02 (setting [1]) was 37 nM; with HLA-A*02:06 (setting [1]), 329 nM; with HLA-A*68:02 (setting [1]), 1320 nM; with HLA-A*02:03 (setting [1]) it was 38 nM; with HLA-A*02:01 (setting [1]), 2240 nM.

Regarding KTDGAVTSPL, the IC50 with HLA-A*02:02 (setting [1]) was 62 nM; with HLA-A*02:06 (setting [1]), 347 nM; with HLA-A*68:02 (setting [1]), 542 nM; with HLA-A*02:03 (setting [1]) it was 400 nM; with HLA-A*02:01 (setting [1]), 1080 nM.

In the case of KVEKYLPEV, the IC50 is 1050 nM in the assay with HLA-A*02:02 (setting [1]); 116 nM with HLA-A*02:06 (setting [1]); 1520 nM with HLA-A*68:02 (setting [1]); 171 nM in the assay with HLA-A*02:03 (setting [1]); 17 nM in the assay with HLA-A*02:01 (setting [1]).

Turning to KVIKLVKSL, the IC50 with HLA-A*02:02 (setting [1]) is 578 nM; with HLA-A*02:06 (setting [1]), 260 nM; with HLA-A*68:02 (setting [1]), 366 nM; with HLA-A*02:03 (setting [1]), 43 nM; with HLA-A*02:01 (setting [1]) it was 395 nM.

As for KVLSIMAFIL, the half-maximal inhibitory concentration (IC50) with HLA-A*02:02 (setting [1]) was found to be 2.3 nM; in the assay with HLA-A*02:06 (setting [1]), 19 nM; in the assay with HLA-A*68:02 (setting [1]), 2970 nM; with HLA-A*02:03 (setting [1]) it was 684 nM; with HLA-A*02:01 (setting [1]) it was 88 nM.

In the case of KVTGSYNLV, the IC50 with HLA-A*02:02 (setting [1]) is 66 nM; with HLA-A*02:06 (setting [1]), 193 nM; with HLA-A*68:02 (setting [1]) it was 538 nM; with HLA-A*02:03 (setting [1]) it was 43 nM; in the assay with HLA-A*02:01 (setting [1]), 754 nM.

Turning to KVYLSTFNM, the IC50 with HLA-A*02:02 (setting [1]) was 482 nM; with HLA-A*02:06 (setting [1]), 265 nM; with HLA-A*68:02 (setting [1]), 1820 nM; with HLA-A*02:03 (setting [1]), 786 nM; with HLA-A*02:01 (setting [1]), 535 nM.

LAFVVFLLV: the IC50 with HLA-A*02:02 (source organism: SARS-CoV1) worked out at 458 nM; with HLA-A*02:06 (source organism: SARS-CoV1), 253 nM; in the assay with HLA-A*68:02 (source organism: SARS-CoV1) it was 1000 nM; in the assay with HLA-A*02:03 (source organism: SARS-CoV1), 1270 nM; with HLA-A*02:01 (source organism: SARS-CoV1), 610 nM.

Regarding LAISAVYFKA, the half-maximal inhibitory concentration (IC50) in the assay with HLA-A*02:02 (setting [1]) stood at 1430 nM; in the assay with HLA-A*02:06 (setting [1]) it was 659 nM; with HLA-A*68:02 (setting [1]) it was 802 nM; in the assay with HLA-A*02:03 (setting [1]), 363 nM; with HLA-A*02:01 (setting [1]), 770 nM.

Turning to LALKNSQAEL, the 50% inhibitory concentration (IC50) with HLA-A*02:02 (setting [1]) came to 741 nM; in the assay with HLA-A*02:06 (setting [1]) it was 1250 nM; in the assay with HLA-A*68:02 (setting [1]), 3660 nM; with HLA-A*02:03 (setting [1]) it was 333 nM; with HLA-A*02:01 (setting [1]), 3760 nM.

With LATLNTLITL, the IC50 with HLA-A*02:02 (setting [1]) came to 139 nM; with HLA-A*02:06 (setting [1]) it was 323 nM; with HLA-A*68:02 (setting [1]), 1040 nM; with HLA-A*02:03 (setting [1]) it was 338 nM; with HLA-A*02:01 (setting [1]), 848 nM.

Consider LAYYNSCMLT, for which the IC50 in the assay with HLA-A*02:02 (setting [1]) was determined as 12 nM; with HLA-A*02:06 (setting [1]) it was 86 nM; in the assay with HLA-A*68:02 (setting [1]) it was 4.9 nM; with HLA-A*02:03 (setting [1]), 16 nM; with HLA-A*02:01 (setting [1]), 485 nM.

As to LIAGIILLIL, the IC50 came out at 141 nM with HLA-A*02:02 (setting [1]); 345 nM with HLA-A*02:06 (setting [1]); 143 nM with HLA-A*68:02 (setting [1]); 680 nM in the assay with HLA-A*02:03 (setting [1]); 540 nM with HLA-A*02:01 (setting [1]).

Consider LIANIFTPLV, for which the IC50 was determined as 0.4 nM with HLA-A*02:02 (source organism: SARS-CoV1); 16 nM with HLA-A*02:06 (source organism: SARS-CoV1); 19 nM with HLA-A*68:02 (source organism: SARS-CoV1); 13 nM in the assay with HLA-A*02:03 (source organism: SARS-CoV1); 12 nM in the assay with HLA-A*02:01 (source organism: SARS-CoV1).

Consider LIDFYLCFL, for which the IC50 in the assay with HLA-A*02:02 (source organism: SARS-CoV1) is 8.3 nM; with HLA-A*02:06 (source organism: SARS-CoV1), 11 nM; with HLA-A*68:02 (source organism: SARS-CoV1), 93 nM; in the assay with HLA-A*02:03 (source organism: SARS-CoV1) it was 61 nM; with HLA-A*02:01 (source organism: SARS-CoV1), 0.9 nM.

LIQDWIPPL: the IC50 with HLA-A*02:02 (setting [4]) was 110 nM; in the assay with HLA-A*02:06 (setting [4]) it was 54 nM; in the assay with HLA-A*68:02 (setting [4]), 1420 nM; in the assay with HLA-A*02:03 (setting [4]), 177 nM; in the assay with HLA-A*02:01 (setting [4]), 97 nM.

Consider LISFFGLFDI, for which the IC50 with HLA-A*02:02 (setting [1]) was 76 nM; with HLA-A*02:06 (setting [1]), 171 nM; with HLA-A*68:02 (setting [1]), 82 nM; with HLA-A*02:03 (setting [1]) it was 108 nM; in the assay with HLA-A*02:01 (setting [1]), 175 nM.

Turning to LISLINSLV, the IC50 with HLA-A*02:02 (setting [1]) stood at 0.48 nM; in the assay with HLA-A*02:06 (setting [1]), 72 nM; in the assay with HLA-A*68:02 (setting [1]), 68 nM; in the assay with HLA-A*02:03 (setting [1]) it was 0.48 nM; in the assay with HLA-A*02:01 (setting [1]) it was 15 nM.

Turning to LIVAALVFL, the concentration for half-maximal inhibition (IC50) came out at 9.4 nM with HLA-A*02:02 (source organism: SARS-CoV1); 11 nM in the assay with HLA-A*02:06 (source organism: SARS-CoV1); 302 nM with HLA-A*68:02 (source organism: SARS-CoV1); 136 nM with HLA-A*02:03 (source organism: SARS-CoV1); 18 nM with HLA-A*02:01 (source organism: SARS-CoV1).

On to LIVILFIMFM, for which the IC50 with HLA-A*02:02 (setting [1]) amounted to 85 nM; with HLA-A*02:06 (setting [1]), 120 nM; with HLA-A*68:02 (setting [1]), 60 nM; in the assay with HLA-A*02:03 (setting [1]), 433 nM; with HLA-A*02:01 (setting [1]) it was 139 nM.

As for LIVMLLFAGV, the IC50 with HLA-A*02:02 (setting [4]) came to 3390 nM; in the assay with HLA-A*02:06 (setting [4]) it was 169 nM; with HLA-A*68:02 (setting [4]), 4290 nM; with HLA-A*02:03 (setting [4]), 358 nM; in the assay with HLA-A*02:01 (setting [4]), 1470 nM.
